Experimental findings from US20070169210A1 (EMORY UNIVERSITY, published 2007) are described below.

For assay [1], the target named is zona pellucida of unfertilized (ovulated) oocytes. Put plainly: cell-based or functional assay.
In assay [2] the target is SED1, endogenous, of mouse sperm and male reproductive tract (mouse) (UniProt P21956). Put plainly: cell-based or functional assay.
In assay [3] the target is T1, ZP1 zona pellucida glycoprotein (murine, UniProt Q62005 21-546).
T1 construct: Native glycoprotein on a blot, non-reducing conditions
T1 sequence (looked up): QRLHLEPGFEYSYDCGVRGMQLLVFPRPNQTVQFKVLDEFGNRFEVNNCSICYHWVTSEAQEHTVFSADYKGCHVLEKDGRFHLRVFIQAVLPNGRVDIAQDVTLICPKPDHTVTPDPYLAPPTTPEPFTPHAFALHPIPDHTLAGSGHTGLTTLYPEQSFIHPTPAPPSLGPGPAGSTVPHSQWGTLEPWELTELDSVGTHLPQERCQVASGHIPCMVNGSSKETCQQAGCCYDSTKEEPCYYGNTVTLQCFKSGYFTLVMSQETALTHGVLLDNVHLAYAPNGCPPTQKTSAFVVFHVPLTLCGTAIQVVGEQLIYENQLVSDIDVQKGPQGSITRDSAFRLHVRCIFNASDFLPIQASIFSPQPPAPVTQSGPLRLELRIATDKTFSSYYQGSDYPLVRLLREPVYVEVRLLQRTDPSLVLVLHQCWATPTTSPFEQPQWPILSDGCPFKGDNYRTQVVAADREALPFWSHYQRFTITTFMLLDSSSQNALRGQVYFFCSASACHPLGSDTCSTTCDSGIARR
Put plainly: blot overlay of zona glycoproteins resolved under nonreducing conditions, biotinylated (His)6-SED1, streptavidin-HRP. The method, then: (§1) The purification of zona pellucida glycoproteins was done as published elsewhere (Miller et al., 1992). The proteins were resolved on 10% polyacrylamide gels and transferred onto Immobilon-P membranes (Millipore) as above. The membranes were blocked in TBST containing 2% BSA for 1 hr at 25° C. Subsequently, membranes were incubated with either (His)₆-SED1, biotinylated (His)₆-SED1, SED1 prepared from COS-7 cells, or biotinylated WGA-lectin (positive control) for 1 hr at 25° C. and washed three times for 10 min in TBST, followed by incubation with either rabbit anti-SED1 and goat anti-rabbit-HRP, or Streptavidin-HRP (Zymed). The membranes were washed, developed, and exposed to film as above.

Assay [4] addresses T2, SED1 expressed in COS-7 cells (SED1-COS), on secreted membrane vesicles (mouse, UniProt P21956 23-463).
T2 construct: Cloned into pcDNA3.1 D/V5-His-Topo; Used as SED1-enriched membrane vesicles released by COS-7 cells; also called COS-expressed SED1
T2 sequence: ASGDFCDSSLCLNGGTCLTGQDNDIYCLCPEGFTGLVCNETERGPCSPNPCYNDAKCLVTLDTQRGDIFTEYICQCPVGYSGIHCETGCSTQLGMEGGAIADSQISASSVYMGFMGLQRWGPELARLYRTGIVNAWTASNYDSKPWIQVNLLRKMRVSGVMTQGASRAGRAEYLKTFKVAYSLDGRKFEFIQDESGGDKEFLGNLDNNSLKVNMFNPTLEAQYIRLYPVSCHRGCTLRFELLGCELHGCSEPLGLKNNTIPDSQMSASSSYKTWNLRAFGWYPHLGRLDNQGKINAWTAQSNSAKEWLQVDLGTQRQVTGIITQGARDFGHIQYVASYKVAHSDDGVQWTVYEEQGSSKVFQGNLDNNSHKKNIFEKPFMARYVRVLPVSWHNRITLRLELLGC
Put plainly: blot overlay, zona glycoproteins resolved under reducing conditions, detected with anti-SED1. The protocol:
as §1
To determine which of the three zona glycoproteins could serve as the putative ligand for SED1, […]. When zona glycoproteins were resolved under reducing conditions, SED1 bound to glycoproteins comigrating as ZP1/ZP2 as well as ZP3 (FIG. 3D). Similar results were achieved using either biotinylated (His)₆-SED1 (D-SED1) detected by Streptavidin-HRP/ECL or recombinant (His)₆-SED1 (rSED1) detected by rabbit-anti-SED1 IgG and HRP-conjugated secondary antibodies (FIG. 3D). […]

Molecule “(His)6-SED1 truncated fusion protein EEC (both EGF repeats, one discoidin/C domain)” had a binding of GalT I null sperm to the zona, % of control (% of control at 3.8 µg/ml) in assay [1] of 21.
On to “preimmune rabbit serum / preimmune IgG (antibody)”, for which the binding of GalT I null sperm to the zona, % of control (% of control binding at 200 µg/ml) in assay [2] is 91.

B1: (His)6-SED1 fusion protein (full-length recombinant mouse SED1 expressed in E. coli) (other)
chain: HHHHHHASGDFCDSSLCLNGGTCLTGQDNDIYCLCPEGFTGLVCNETERGPCSPNPCYNDAKCLVTLDTQRGDIFTEYICQCPVGYSGIHCETGCSTQLGMEGGAIADSQISASSVYMGFMGLQRWGPELARLYRTGIVNAWTASNYDSKPWIQVNLLRKMRVSGVMTQGASRAGRAEYLKTFKVAYSLDGRKFEFIQDESGGDKEFLGNLDNNSLKVNMFNPTLEAQYIRLYPVSCHRGCTLRFELLGCELHGCSEPLGLKNNTIPDSQMSASSSYKTWNLRAFGWYPHLGRLDNQGKINAWTAQSNSAKEWLQVDLGTQRQVTGIITQGARDFGHIQYVASYKVAHSDDGVQWTVYEEQGSSKVFQGNLDNNSHKKNIFEKPFMARYVRVLPVSWHNRITLRLELLGC
modifications: biotinylated with Sulfo-NHS-LC-LC-Biotin in the bead assays and in the streptavidin-detected blot overlays
notes: also called rSED1; recombinant SED1
Take B1: the binding of GalT I null sperm to the zona, % of control (% of control at 6 µg/ml) in assay [1] came out at 27. Moreover, the binding result in assay [3] is “no binding”.

B2: SED1, endogenous, of mouse sperm and male reproductive tract (protein)
chain: T2 sequence
Consider B2, for which, in assay [1], the sperm bound per egg, SED1 null sperm was found to be 1.45 sperm/egg and the sperm bound per egg, wild-type sperm turned out to be 11.2 sperm/egg.

B3: ZP3 zona pellucida glycoprotein (other, murine, UniProt P10761 23-351, looked up)
chain: QTLWLLPGGTPTPVGSSSPVKVECLEAELVVTVSRDLFGTGKLVQPGDLTLGSEGCQPRVSVDTDVVRFNAQLHECSSRVQMTKDALVYSTFLLHDPRPVSGLSILRTNRVEVPIECRYPRQGNVSSHPIQPTWVPFRATVSSEEKLAFSLRLMEENWNTEKSAPTFHLGEVAHLQAEVQTGSHLPLQLFVDHCVATPSPLPDPNSSPYHFIVDFHGCLVDGLSESFSAFQVPRPRPETLQFTVDVFHFANSSRNTLYITCHLKVAPANQIPDKLNKACSFNKTSQSWLPVEGDADICDCCSHGNCSNSSSSQFQIHGPRQWSKLVSRN
notes: Native glycoprotein on a blot, reducing and non-reducing conditions
Consider B3, for which the binding result in assay [4] is reported as “binds”.
